Experimental data from paper PMC9150345.

Assays:
[1] = target: hTBPQ80, hTBP with an extension of 80 glutamine residues (amino acids 50-142), fused to the N-terminal fragment of Venus (human) (UniProt P20226); experiment: split reporter (BiFC, NanoBiT); BiFC in HEK293 cells co-transfected with VC- and VN- constructs and pCAG-mCherry; read 48 h after transfection; interaction percent = green cells per 100 red cells
[2] = target: Antp-hTBP heterodimer (VCAntp-VNTBP, Venus reconstituted by BiFC) (Drosophila | human) (UniProt P02833)
Antp-hTBP heterodimer (VCAntp-VNTBP, Venus reconstituted by BiFC) (Drosophila | human), sequence (P02833 whole entry, chain 1 of 2): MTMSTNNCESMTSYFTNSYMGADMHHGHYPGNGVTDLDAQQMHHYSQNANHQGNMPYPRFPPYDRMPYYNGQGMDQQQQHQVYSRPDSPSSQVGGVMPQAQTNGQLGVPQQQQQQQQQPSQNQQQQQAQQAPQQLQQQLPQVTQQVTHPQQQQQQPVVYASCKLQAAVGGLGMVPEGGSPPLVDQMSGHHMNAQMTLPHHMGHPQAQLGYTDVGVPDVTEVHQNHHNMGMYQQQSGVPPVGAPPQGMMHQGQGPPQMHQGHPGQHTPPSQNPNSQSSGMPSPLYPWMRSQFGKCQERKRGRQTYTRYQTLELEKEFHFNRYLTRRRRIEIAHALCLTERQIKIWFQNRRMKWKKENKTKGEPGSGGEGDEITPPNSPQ
Antp-hTBP heterodimer (VCAntp-VNTBP, Venus reconstituted by BiFC) (Drosophila | human), sequence (P20226 whole entry, chain 2 of 2, further chain): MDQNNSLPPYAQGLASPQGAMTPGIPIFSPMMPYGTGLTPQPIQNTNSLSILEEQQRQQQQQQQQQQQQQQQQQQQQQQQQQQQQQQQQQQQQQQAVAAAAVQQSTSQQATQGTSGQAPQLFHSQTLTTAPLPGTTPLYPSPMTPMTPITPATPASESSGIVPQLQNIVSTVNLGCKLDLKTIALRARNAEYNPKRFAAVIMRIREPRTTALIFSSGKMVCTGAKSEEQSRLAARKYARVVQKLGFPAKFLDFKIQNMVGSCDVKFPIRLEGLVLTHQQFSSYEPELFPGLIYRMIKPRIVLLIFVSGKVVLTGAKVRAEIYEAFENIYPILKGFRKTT

hTBPQ80, hTBP with an extension of 80 glutamine residues (amino acids 50-142), fused to the N-terminal fragment of Venus (human), sequence (P20226 whole entry, the tested form may be a part): as the sequence (P20226 whole entry, chain 2 of 2, further chain) above
Antennapedia (Antp), fused to the C-terminal fragment of Venus, sequence (P02833 whole entry, the tested form may be a part): as the sequence (P02833 whole entry, chain 1 of 2) above
AntpΔN, Antp lacking the N-terminal region (amino acids 1-269), fused to the C-terminal fragment of Venus, sequence (P02833 270-378, stated change not applied): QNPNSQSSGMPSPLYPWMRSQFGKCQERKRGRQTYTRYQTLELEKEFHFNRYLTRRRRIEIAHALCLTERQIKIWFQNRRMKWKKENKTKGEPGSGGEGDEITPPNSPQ

Row | Substance | percent of transfected cells showing BiFC [1] | Antp transactivation on pGLH11 with co-expressed TBP and BIP2, percent of Antp alone (Fig. 5D) [2]
1 | Antennapedia (Antp), fused to the C-terminal fragment of Venus (from UniProt P02833 1-378) (natural protein) | 78% | –
2 | AntpΔN, Antp lacking the N-terminal region (amino acids 1-269), fused to the C-terminal fragment of Venus (from UniProt P02833 270-378) (domain or fragment) | 47% | –
3 | Bric-a-brac interacting protein BIP2 (2–89) fused to ECFP (from UniProt Q9XZU7 2-89) (domain or fragment) | – | 74%
